Values belong to the binder of their own block, whether it stands above or below them. Bridge positions count the residues as written; N and C are the ends. Square brackets hold non-standard residues; d marks the D form. Ends that are not written are not given here. Phe(3-COOH) = N[C@@H](Cc1cccc(C(=O)O)c1)C(=O)O; Oic = O=C(O)[C@@H]1C[C@@H]2CCCC[C@@H]2N1; PEG8 = NCCOCCOCCOCCOCCOCCOCCOCCOCCC(=O)O; NMeI = CC[C@H](C)[C@H](NC)C(=O)O; tBuAla = CC(C)(C)C[C@H](N)C(=O)O; Pen = CC(C)(S)[C@H](N)C(=O)O; 4Amb = NCc1ccc(C(=O)O)cc1; NMeC = CN[C@@H](CS)C(=O)O; NMeA = CN[C@@H](C)C(=O)O; GABA = NCCCC(=O)O; Sar = CNCC(=O)O
Assays:
[1] = target: T1, Recombinant human MASP1 enzyme (fragment corresponding to amino acids 297-699, C-terminal His Tag) (human, UniProt P48740 297-699); assay: cell-based or functional assay
T1 sequence: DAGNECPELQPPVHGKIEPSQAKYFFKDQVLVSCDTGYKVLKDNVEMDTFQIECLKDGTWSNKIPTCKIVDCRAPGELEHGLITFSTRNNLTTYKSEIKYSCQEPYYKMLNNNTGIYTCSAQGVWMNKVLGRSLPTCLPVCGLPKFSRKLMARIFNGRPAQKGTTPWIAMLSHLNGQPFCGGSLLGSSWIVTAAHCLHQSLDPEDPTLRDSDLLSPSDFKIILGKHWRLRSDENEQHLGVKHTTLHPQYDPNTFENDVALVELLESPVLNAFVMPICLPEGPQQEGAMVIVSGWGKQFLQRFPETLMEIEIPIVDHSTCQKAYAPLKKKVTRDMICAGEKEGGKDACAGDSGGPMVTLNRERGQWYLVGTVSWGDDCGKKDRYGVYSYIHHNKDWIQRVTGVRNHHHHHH

[2] = target: Recombinant human MASP2 enzyme (fragment corresponding to amino acids 297-686, C-terminal His Tag) (human, UniProt O00187 297-686); assay: cell-based or functional assay
Chain of Recombinant human MASP2 enzyme (fragment corresponding to amino acids 297-686, C-terminal His Tag) (O00187 other isoform, or with tags, fused parts or gaps limits assumed): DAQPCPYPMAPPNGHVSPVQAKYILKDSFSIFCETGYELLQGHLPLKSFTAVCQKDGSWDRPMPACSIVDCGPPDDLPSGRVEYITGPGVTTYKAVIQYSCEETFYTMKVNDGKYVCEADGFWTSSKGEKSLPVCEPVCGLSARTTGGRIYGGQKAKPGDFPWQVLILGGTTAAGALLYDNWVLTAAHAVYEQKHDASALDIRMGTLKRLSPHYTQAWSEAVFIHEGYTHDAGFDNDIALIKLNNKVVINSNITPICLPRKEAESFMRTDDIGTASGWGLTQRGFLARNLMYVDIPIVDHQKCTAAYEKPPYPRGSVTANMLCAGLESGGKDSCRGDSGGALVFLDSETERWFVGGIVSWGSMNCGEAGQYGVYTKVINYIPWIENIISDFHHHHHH

B1: ((N-Me)G)-IC+SRSLP-(Oic)-I-(Pen)+IP-(PEG8(28 atoms))-NH2 (peptide)
peptide: [Sar]ICSRSLP[Oic]I[Pen]IP[PEG8]-NH2
modifications: disulfide 3-11; N-terminus assumed
SMILES: CC[C@H](C)[C@H](NC(=O)CNC)C(=O)N[C@H]1CSSC(C)(C)[C@@H](C(=O)N[C@H](C(=O)N2CCC[C@H]2C(=O)NCCOCCOCCOCCOCCOCCOCCOCCOCCC(N)=O)[C@@H](C)CC)NC(=O)[C@H]([C@@H](C)CC)NC(=O)[C@@H]2C[C@@H]3CCCC[C@@H]3N2C(=O)[C@@H]2CCCN2C(=O)[C@H](CC(C)C)NC(=O)[C@H](CO)NC(=O)[C@H](CCCNC(=N)N)NC(=O)[C@H](CO)NC1=O
human MASP1 IC50 [1]: 4.2 nM

B3: ((N-Me)G)-IC+SRS-((tBu)A)-PPI-(Pen)+IPP-NH2 (peptide)
peptide: [Sar]ICSRS[tBuAla]PPI[Pen]IPP-NH2
modifications: disulfide 3-11; N-terminus assumed
SMILES: CC[C@H](C)[C@H](NC(=O)CNC)C(=O)N[C@H]1CSSC(C)(C)[C@@H](C(=O)N[C@H](C(=O)N2CCC[C@H]2C(=O)N2CCC[C@H]2C(N)=O)[C@@H](C)CC)NC(=O)[C@H]([C@@H](C)CC)NC(=O)[C@@H]2CCCN2C(=O)[C@@H]2CCCN2C(=O)[C@H](CC(C)(C)C)NC(=O)[C@H](CO)NC(=O)[C@H](CCCNC(=N)N)NC(=O)[C@H](CO)NC1=O
human MASP1 IC50 [1]: 3.8 nM
human MASP2 IC50 [2]: 63 nM

B5: ((N-Me)G)-IC+SRSLP-(Oic)-I-(Pen)+IP-((3-Carboxy)F)-NH2 (peptide)
peptide: [Sar]ICSRSLP[Oic]I[Pen]IP[Phe(3-COOH)]-NH2
modifications: disulfide 3-11; N-terminus assumed
SMILES: CC[C@H](C)[C@H](NC(=O)CNC)C(=O)N[C@H]1CSSC(C)(C)[C@@H](C(=O)N[C@H](C(=O)N2CCC[C@H]2C(=O)N[C@@H](Cc2cccc(C(=O)O)c2)C(N)=O)[C@@H](C)CC)NC(=O)[C@H]([C@@H](C)CC)NC(=O)[C@@H]2C[C@@H]3CCCC[C@@H]3N2C(=O)[C@@H]2CCCN2C(=O)[C@H](CC(C)C)NC(=O)[C@H](CO)NC(=O)[C@H](CCCNC(=N)N)NC(=O)[C@H](CO)NC1=O
human MASP1 IC50 [1]: 5 nM

B6: ((N-Me)G)-IC+SRSLPPIC+IPD-NH2 (peptide)
peptide: [Sar]ICSRSLPPICIPD-NH2
modifications: disulfide 3-11; N-terminus assumed
SMILES: CC[C@H](C)[C@H](NC(=O)CNC)C(=O)N[C@H]1CSSC[C@@H](C(=O)N[C@H](C(=O)N2CCC[C@H]2C(=O)N[C@@H](CC(=O)O)C(N)=O)[C@@H](C)CC)NC(=O)[C@H]([C@@H](C)CC)NC(=O)[C@@H]2CCCN2C(=O)[C@@H]2CCCN2C(=O)[C@H](CC(C)C)NC(=O)[C@H](CO)NC(=O)[C@H](CCCNC(=N)N)NC(=O)[C@H](CO)NC1=O
human MASP1 IC50 [1]: 13 nM

B9: (4-(Aminomethyl)benzoic acid)-IC+SRS-((tBu)A)-PPI-(Pen)+IPD-NH2 (peptide)
peptide: [4Amb]ICSRS[tBuAla]PPI[Pen]IPD-NH2
modifications: disulfide 3-11; N-terminus assumed
SMILES: CC[C@H](C)[C@H](NC(=O)c1ccc(CN)cc1)C(=O)N[C@H]1CSSC(C)(C)[C@@H](C(=O)N[C@H](C(=O)N2CCC[C@H]2C(=O)N[C@@H](CC(=O)O)C(N)=O)[C@@H](C)CC)NC(=O)[C@H]([C@@H](C)CC)NC(=O)[C@@H]2CCCN2C(=O)[C@@H]2CCCN2C(=O)[C@H](CC(C)(C)C)NC(=O)[C@H](CO)NC(=O)[C@H](CCCNC(=N)N)NC(=O)[C@H](CO)NC1=O
human MASP2 IC50 [2]: 8.1 nM

B11: (2-(Morpholine)acetyl)-IC+SRS-((tBu)A)-PPI-(Pen)+IPD-NH2 (peptide)
peptide: [2‑(Morpholine)acetyl]ICSRS[tBuAla]PPI[Pen]IPD-NH2
modifications: disulfide 3-11
human MASP1 IC50 [1]: 15 nM

B14: ((N-Me)G)-IC+SRS-((tBu)A)-PPI-(Pen)+IP-NH2 (peptide)
peptide: [Sar]ICSRS[tBuAla]PPI[Pen]IP-NH2
modifications: disulfide 3-11; N-terminus assumed
SMILES: CC[C@H](C)[C@H](NC(=O)CNC)C(=O)N[C@H]1CSSC(C)(C)[C@@H](C(=O)N[C@H](C(=O)N2CCC[C@H]2C(N)=O)[C@@H](C)CC)NC(=O)[C@H]([C@@H](C)CC)NC(=O)[C@@H]2CCCN2C(=O)[C@@H]2CCCN2C(=O)[C@H](CC(C)(C)C)NC(=O)[C@H](CO)NC(=O)[C@H](CCCNC(=N)N)NC(=O)[C@H](CO)NC1=O
human MASP1 IC50 [1]: 3.8 nM
human MASP2 IC50 [2]: 44 nM

B15: ((N-Me)A)-IC+SRS-((tBu)A)-PPI-((N-Me)C)+IPD-NH2 (peptide)
peptide: [NMeA]ICSRS[tBuAla]PPI[NMeC]IPD-NH2
modifications: disulfide 3-11; N-terminus assumed
SMILES: CC[C@H](C)[C@H](NC(=O)[C@H](C)NC)C(=O)N[C@H]1CSSC[C@@H](C(=O)N[C@H](C(=O)N2CCC[C@H]2C(=O)N[C@@H](CC(=O)O)C(N)=O)[C@@H](C)CC)N(C)C(=O)[C@H]([C@@H](C)CC)NC(=O)[C@@H]2CCCN2C(=O)[C@@H]2CCCN2C(=O)[C@H](CC(C)(C)C)NC(=O)[C@H](CO)NC(=O)[C@H](CCCNC(=N)N)NC(=O)[C@H](CO)NC1=O
human MASP1 IC50 [1]: 4.4 nM

B16: (Gamma-Abu)-IC+SRS-((tBu)A)-PPI-((N-Me)C)+IPD-NH2 (peptide)
peptide: [GABA]ICSRS[tBuAla]PPI[NMeC]IPD-NH2
modifications: disulfide 3-11; N-terminus assumed
SMILES: CC[C@H](C)[C@H](NC(=O)CCCN)C(=O)N[C@H]1CSSC[C@@H](C(=O)N[C@H](C(=O)N2CCC[C@H]2C(=O)N[C@@H](CC(=O)O)C(N)=O)[C@@H](C)CC)N(C)C(=O)[C@H]([C@@H](C)CC)NC(=O)[C@@H]2CCCN2C(=O)[C@@H]2CCCN2C(=O)[C@H](CC(C)(C)C)NC(=O)[C@H](CO)NC(=O)[C@H](CCCNC(=N)N)NC(=O)[C@H](CO)NC1=O
human MASP2 IC50 [2]: 210 nM

B18: ((N-Me)G)-IC+SRSLPPIC+IPD-NH2 (HCl salt) (peptide)
peptide: [Sar]ICSRSLPPICIPD-NH2
modifications: disulfide 3-11; also: HCl salt
human MASP1 IC50 [1]: 7.1 nM

The remaining lines, values ahead:

human MASP1 IC50 [1]: 5.5 nM
B2: G-((N-Me)I)-C+SRSLPPIC+IPD-NH2 (HCl salt) (peptide)
peptide: G[NMeI]CSRSLPPICIPD-NH2
modifications: disulfide 3-11; also: HCl salt

human MASP1 IC50 [1]: 16 nM
B4: Ac-IC+SRS-((tBu)A)-PPI-(Pen)+IPD-NH2 (peptide)
peptide: Ac-ICSRS[tBuAla]PPI[Pen]IPD-NH2
modifications: disulfide 2-10
SMILES: CC[C@H](C)[C@H](NC(C)=O)C(=O)N[C@H]1CSSC(C)(C)[C@@H](C(=O)N[C@H](C(=O)N2CCC[C@H]2C(=O)N[C@@H](CC(=O)O)C(N)=O)[C@@H](C)CC)NC(=O)[C@H]([C@@H](C)CC)NC(=O)[C@@H]2CCCN2C(=O)[C@@H]2CCCN2C(=O)[C@H](CC(C)(C)C)NC(=O)[C@H](CO)NC(=O)[C@H](CCCNC(=N)N)NC(=O)[C@H](CO)NC1=O

human MASP1 IC50 [1]: 6.3 nM
B7: aIC+SRSLP-(Oic)-I-(Pen)+IPD-NH2 (peptide)
peptide: [dA]ICSRSLP[Oic]I[Pen]IPD-NH2
modifications: disulfide 3-11

human MASP1 IC50 [1]: 11 nM
B8: G-((N-Me)I)-C+SRSLPPIC+IPD-NH2 (peptide)
peptide: G[NMeI]CSRSLPPICIPD-NH2
modifications: disulfide 3-11; N-terminus assumed
SMILES: CC[C@H](C)[C@@H]1NC(=O)[C@@H]2CCCN2C(=O)[C@@H]2CCCN2C(=O)[C@H](CC(C)C)NC(=O)[C@H](CO)NC(=O)[C@H](CCCNC(=N)N)NC(=O)[C@H](CO)NC(=O)[C@@H](NC(=O)[C@H]([C@@H](C)CC)N(C)C(=O)CN)CSSC[C@@H](C(=O)N[C@H](C(=O)N2CCC[C@H]2C(=O)N[C@@H](CC(=O)O)C(N)=O)[C@@H](C)CC)NC1=O

human MASP1 IC50 [1]: 3.8 nM
human MASP2 IC50 [2]: 210 nM
B10: AIC+SRS-((tBu)A)-P-(Oic)-I-((N-Me)C)+IPD-OH (HCl salt) (peptide)
peptide: AICSRS[tBuAla]P[Oic]I[NMeC]IPD-OH
modifications: disulfide 3-11; also: HCl salt

human MASP1 IC50 [1]: 4.4 nM
B12: AIC+SRSLP-(Oic)-I-((N-Me)C)+IPD-OH (peptide)
peptide: AICSRSLP[Oic]I[NMeC]IPD-OH
modifications: disulfide 3-11; N-terminus assumed
SMILES: CC[C@H](C)[C@H](NC(=O)[C@H](C)N)C(=O)N[C@H]1CSSC[C@@H](C(=O)N[C@H](C(=O)N2CCC[C@H]2C(=O)N[C@@H](CC(=O)O)C(=O)O)[C@@H](C)CC)N(C)C(=O)[C@H]([C@@H](C)CC)NC(=O)[C@@H]2C[C@@H]3CCCC[C@@H]3N2C(=O)[C@@H]2CCCN2C(=O)[C@H](CC(C)C)NC(=O)[C@H](CO)NC(=O)[C@H](CCCNC(=N)N)NC(=O)[C@H](CO)NC1=O

human MASP1 IC50 [1]: 7 nM
B13: aIC+SRSLP-(Oic)-I-(Pen)+IPD-OH (peptide)
peptide: [dA]ICSRSLP[Oic]I[Pen]IPD-OH
modifications: disulfide 3-11

human MASP1 IC50 [1]: 3.8 nM
human MASP2 IC50 [2]: 140 nM
B17: HIC+SRS-((tBu)A)-PPI-((N-Me)C)+I-NH2 (peptide)
peptide: HICSRS[tBuAla]PPI[NMeC]I-NH2
modifications: disulfide 3-11; N-terminus assumed
SMILES: CC[C@H](C)[C@H](NC(=O)[C@@H]1CSSC[C@H](NC(=O)[C@@H](NC(=O)[C@@H](N)Cc2c[nH]cn2)[C@@H](C)CC)C(=O)N[C@@H](CO)C(=O)N[C@@H](CCCNC(=N)N)C(=O)N[C@@H](CO)C(=O)N[C@@H](CC(C)(C)C)C(=O)N2CCC[C@H]2C(=O)N2CCC[C@H]2C(=O)N[C@@H]([C@@H](C)CC)C(=O)N1C)C(N)=O

Source: patent publication US20210246166A1 (Bayer, published 2021)
